Values joined by “and” are separate entries in the source; they are usually repeats but may differ in a detail not shown here. Equal values may be shown once.

This is an account of results in patent US20240060059A1.

Experiment in all cases: cell-based or functional assay
The target in one assay is [196-297]-FRB (UniProt P42345).
For assay [1], the target named is spHT 80 C-terminal fragment fused to FRB or FKBP.
Assay [2] deals with spHT 133 C-terminal fragment fused to FRB or FKBP.
The target in assay [3] is spHT 145 C-terminal fragment fused to FRB or FKBP.
Assay [4] deals with spHT 157 C-terminal fragment fused to FRB or FKBP.
Assay [5] deals with spHT 180 C-terminal fragment fused to FRB or FKBP.

Sequence of UniProt P42345 (P42345 other isoform, or with tags, fused parts or gaps limits assumed): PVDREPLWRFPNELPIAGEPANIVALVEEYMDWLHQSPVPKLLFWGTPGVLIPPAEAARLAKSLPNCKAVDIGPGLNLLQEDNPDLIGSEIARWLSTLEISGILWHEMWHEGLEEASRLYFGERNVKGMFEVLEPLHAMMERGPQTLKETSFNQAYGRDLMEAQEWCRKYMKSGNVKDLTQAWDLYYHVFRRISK

Turning to “[1-195]-FKBP (from UniProt P62942 2-108)”, the fold fluorescence signal increase (JF646 ligand) in the presence of 50 nM rapamycin, E. coli lysates in assay [196-297]-FRB was 4.7 fold and > 2 fold.

For the substance “spHT 80 N-terminal fragment fused to FRB or FKBP”, the fold fluorescence signal increase (JF646 ligand) in the presence of 50 nM rapamycin, E. coli lysates in assay [1] was more than 2 fold.

Regarding “spHT 133 N-terminal fragment fused to FRB or FKBP”, the fold fluorescence signal increase (JF646 ligand) in the presence of 50 nM rapamycin, E. coli lysates in assay [2] was more than 2 fold.

For the substance “spHT 145 N-terminal fragment fused to FRB or FKBP”, in assay [3], the fold fluorescence signal increase (JF646 ligand) in the presence of 50 nM rapamycin, E. coli lysates is more than 2 fold.

Turning to “spHT 157 N-terminal fragment fused to FRB or FKBP”, in assay [4], the fold fluorescence signal increase (JF646 ligand) in the presence of 50 nM rapamycin, E. coli lysates was more than 2 fold.

Regarding “spHT 180 N-terminal fragment fused to FRB or FKBP”, the fold fluorescence signal increase (JF646 ligand) in the presence of 50 nM rapamycin, E. coli lysates in assay [5] was more than 2 fold.
